Measured values taken from patent publication US20020137113A1.

Key:
[1] = biological target: gD.trkB.IgG (gD tagged trkB.IgG fusion protein) (Herpes simplex virus; human) (UniProt Q16620); test: competitive displacement of iodinated NT5 from gD tagged trkB.IgG in 293 cell supernatant
[2] = biological target: gD.trkC.IgG (gD tagged trkC.IgG fusion protein) (Herpes simplex virus; human) (UniProt Q16288); test: competitive displacement of iodinated NT3 from gD tagged trkC.IgG in 293 cell supernatant
[3] = biological target: trkC.IgG (untagged trk.IgG fusion of the trkC extracellular domain and IgG-1 Fc) (human) (UniProt Q16288); test: competitive displacement of iodinated NT3 from trkC.IgG in 293 cell supernatant

Row | IC50 [1] | IC50 [2] | IC50 [3] | Binder
1 | 0.0121 nM |  |  | neurotrophin 5 (NT5) (ligand, UniProt P34130 81-210, looked up) GVSETAPASRRGELAVCDAVSGWVTDRRTAVDLRGREVEVLGEVPAAGGSPLRQYFFETRCKADNAEEGGPGAGGGGCRGVDRRHWVSECKAKQSYVRALTADAQGRVGWRWIRIDTACVCTLLSRTGRA
2 |  | 0.0302 nM | 0.0311 nM | neurotrophin 3 (NT3) (ligand, UniProt P20783 139-257, looked up) YAEHKSHRGEYSVCDSESLWVTDKSSAIDIRGHQVTVLGEIKTGNSPVKQYFYETRCKEARPVKNGCRGIDDKHWNSQCKTSQTYVRALTSENNKLVGWRWIRIDTSCVCALSRKIGRT
